Measurements: the supplement of paper PMC9112550, “Optimization of the antimicrobial peptide Bac7 by deep mutational scanning” (BMC Biology, 2022)

system: Escherichia coli TOP10; test: shrunken log2 fold change of peptide-encoding DNA abundance (4.5 h post-induction vs induction); higher = less antimicrobial activity (less host growth inhibition); conditions: time post-induction: 4.5 h; library: site-saturation at positions 5, 18, 19, 20
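Further: peptides expressed intracellularly from a pBAD plasmid library in pooled LB shake-flask culture, induced with 0.3% L-arabinose, DNA abundance read by NGS, three biological replicates, DESeq2 with apeglm shrinkage.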

| Sequence | shrunken log2 fold change |
| --- | --- |
| RRIRMRPPRLPRPRPRPMTAPRP | 0.198 |
| RRIRCRPPRLPRPRPRPDRMPRP | -0.139 |
| RRIRERPPRLPRPRPRPISMPRP | 2.71 |
| RRIRKRPPRLPRPRPRPQEQPRP | 0.225 |
| RRIRNRPPRLPRPRPRPLCWPRP | -0.198 |
| RRIRVRPPRLPRPRPRPYWGPRP | -0.526 |
| RRIRMRPPRLPRPRPRPAVNPRP | 0.0731 |
| RRIRYRPPRLPRPRPRPCWPPRP | 0.0499 |
| RRIRWRPPRLPRPRPRPMSGPRP | 0.118 |
| RRIRWRPPRLPRPRPRPADFPRP | -0.0275 |
| RRIRMRPPRLPRPRPRPHECPRP | 0.0178 |
| RRIRRRPPRLPRPRPRPTRIPRP | 0.71 |
| RRIRRRPPRLPRPRPRPIVQPRP | -0.0768 |
| RRIRQRPPRLPRPRPRPWKHPRP | -0.0075 |
| RRIRVRPPRLPRPRPRPWAGPRP | 0.116 |
| RRIRCRPPRLPRPRPRPCFDPRP | -0.526 |
| RRIRFRPPRLPRPRPRPYCNPRP | -1.06 |
| RRIRPRPPRLPRPRPRPWDLPRP | -0.0362 |
| RRIRERPPRLPRPRPRPDEHPRP | -0.274 |
| RRIRLRPPRLPRPRPRPETLPRP | 0.228 |
| RRIRHRPPRLPRPRPRPSHQPRP | -0.178 |
| RRIRVRPPRLPRPRPRPTGTPRP | 0.699 |
| RRIRTRPPRLPRPRPRPVGRPRP | 0.129 |
| RRIRVRPPRLPRPRPRPRNKPRP | -0.136 |
| RRIRGRPPRLPRPRPRPDPPPRP | 1.14 |

| Sequence | shrunken log2 fold change |
| --- | --- |
| RRIRDRPPRLPRPRPRPQNNPRP | -0.653 |
| RRIRARPPRLPRPRPRPMRKPRP | -0.046 |
| RRIRARPPRLPRPRPRPWSCPRP | -0.045 |
| RRIRGRPPRLPRPRPRPLTTPRP | 1.82 |
| RRIRGRPPRLPRPRPRPTIGPRP | 0.589 |
| RRIRQRPPRLPRPRPRPNAQPRP | 0.0116 |
| RRIRWRPPRLPRPRPRPLYIPRP | -0.872 |
| RRIRQRPPRLPRPRPRPYMKPRP | -0.521 |
| RRIRNRPPRLPRPRPRPLIIPRP | -0.433 |
| RRIRTRPPRLPRPRPRPKHGPRP | -0.0288 |
| RRIRARPPRLPRPRPRPHNDPRP | -0.34 |
| RRIRFRPPRLPRPRPRPPAYPRP | 0.127 |
| RRIRPRPPRLPRPRPRPASTPRP | 0.11 |
| RRIRKRPPRLPRPRPRPDTEPRP | 1.13 |
| RRIRIRPPRLPRPRPRPNFVPRP | 0.0196 |
| RRIRQRPPRLPRPRPRPDWFPRP | -0.104 |
| RRIRTRPPRLPRPRPRPAHNPRP | -0.215 |
| RRIRARPPRLPRPRPRPQRPPRP | 0.517 |
| RRIRHRPPRLPRPRPRPMNVPRP | -0.0594 |
| RRIRCRPPRLPRPRPRPNGTPRP | -0.0476 |
| RRIRARPPRLPRPRPRPHAHPRP | 0.254 |
| RRIRERPPRLPRPRPRPGACPRP | 0.0171 |
| RRIRFRPPRLPRPRPRPMTAPRP | -0.00148 |
| RRIRHRPPRLPRPRPRPSGNPRP | -0.199 |
| RRIRGRPPRLPRPRPRPIHCPRP | -0.0922 |

| Sequence | shrunken log2 fold change |
| --- | --- |
| RRIRERPPRLPRPRPRPFGCPRP | -0.0136 |
| RRIRIRPPRLPRPRPRPWFEPRP | -0.161 |
| RRIRCRPPRLPRPRPRPTQYPRP | -0.0607 |
| RRIRPRPPRLPRPRPRPLWFPRP | 0.173 |
| RRIRWRPPRLPRPRPRPLHGPRP | 0.131 |
| RRIRVRPPRLPRPRPRPTWLPRP | 0.318 |
| RRIRYRPPRLPRPRPRPSCYPRP | -0.0789 |
| RRIRVRPPRLPRPRPRPIWCPRP | 0.0502 |
| RRIRQRPPRLPRPRPRPSAQPRP | -0.223 |
| RRIRNRPPRLPRPRPRPTHCPRP | 0.085 |
| RRIRVRPPRLPRPRPRPKGAPRP | 0.553 |
| RRIRCRPPRLPRPRPRPMKRPRP | -0.176 |
| RRIRIRPPRLPRPRPRPNLYPRP | -0.565 |
| RRIRLRPPRLPRPRPRPLDWPRP | 0.124 |
| RRIRKRPPRLPRPRPRPYCVPRP | -0.382 |
| RRIRGRPPRLPRPRPRPKSMPRP | 0.366 |
| RRIRMRPPRLPRPRPRPYNQPRP | -0.486 |
| RRIRARPPRLPRPRPRPKMTPRP | 0.365 |
| RRIRKRPPRLPRPRPRPIDSPRP | 0.229 |
| RRIRCRPPRLPRPRPRPWPLPRP | 0.222 |
| RRIRTRPPRLPRPRPRPLCVPRP | -0.357 |
| RRIRLRPPRLPRPRPRPIRIPRP | -0.379 |
| RRIRNRPPRLPRPRPRPTHWPRP | 0.661 |
| RRIRHRPPRLPRPRPRPSQHPRP | -0.411 |
| RRIRQRPPRLPRPRPRPGSRPRP | 0.166 |

| Sequence | shrunken log2 fold change |
| --- | --- |
| RRIRDRPPRLPRPRPRPTGDPRP | 0.209 |
| RRIRDRPPRLPRPRPRPSGIPRP | -0.0212 |
| RRIRPRPPRLPRPRPRPTLKPRP | 0.114 |
| RRIRGRPPRLPRPRPRPDMDPRP | 0.00342 |
| RRIRQRPPRLPRPRPRPNSMPRP | -0.25 |
| RRIRWRPPRLPRPRPRPIDNPRP | -0.406 |
| RRIRYRPPRLPRPRPRPRPEPRP | 0.254 |
| RRIRHRPPRLPRPRPRPFYNPRP | -0.632 |
| RRIRIRPPRLPRPRPRPHCIPRP | -2.92 |
| RRIRSRPPRLPRPRPRPNELPRP | -0.295 |
| RRIRHRPPRLPRPRPRPGQRPRP | 0.0218 |
| RRIRPRPPRLPRPRPRPDPPPRP | 0.249 |
| RRIRCRPPRLPRPRPRPAWGPRP | 0.193 |
| RRIRWRPPRLPRPRPRPALNPRP | 0.801 |
| RRIRGRPPRLPRPRPRPLQTPRP | 1.59 |
| RRIRARPPRLPRPRPRPPCWPRP | 0.967 |
| RRIRWRPPRLPRPRPRPRCTPRP | 0.243 |
| RRIRSRPPRLPRPRPRPVVPPRP | 0.0433 |
| RRIRPRPPRLPRPRPRPAICPRP | 0.0446 |
| RRIRTRPPRLPRPRPRPWPNPRP | -0.124 |
| RRIRWRPPRLPRPRPRPDENPRP | 0.644 |
| RRIRARPPRLPRPRPRPVHVPRP | 0.00822 |
| RRIRWRPPRLPRPRPRPQLCPRP | 0.078 |
| RRIRVRPPRLPRPRPRPLEYPRP | 0.0331 |
| RRIRLRPPRLPRPRPRPLQTPRP | 0.101 |

| Sequence | shrunken log2 fold change |
| --- | --- |
| RRIRIRPPRLPRPRPRPAAIPRP | -0.199 |
| RRIRVRPPRLPRPRPRPKRGPRP | 0.054 |
| RRIRERPPRLPRPRPRPIMYPRP | -1.08 |
| RRIRHRPPRLPRPRPRPSSSPRP | -0.258 |
| RRIRNRPPRLPRPRPRPPTPPRP | 0.56 |
| RRIRPRPPRLPRPRPRPKWIPRP | -0.465 |
| RRIRIRPPRLPRPRPRPTYIPRP | -1.29 |
| RRIRNRPPRLPRPRPRPNHEPRP | -0.00884 |
| RRIRDRPPRLPRPRPRPPDTPRP | 0.662 |
| RRIRNRPPRLPRPRPRPRIIPRP | -0.425 |
| RRIRPRPPRLPRPRPRPEFQPRP | 0.0778 |
| RRIRTRPPRLPRPRPRPNCNPRP | -0.353 |
| RRIRVRPPRLPRPRPRPPHIPRP | 0.0567 |
| RRIRPRPPRLPRPRPRPANIPRP | -0.617 |
| RRIRVRPPRLPRPRPRPNIHPRP | -0.556 |
| RRIRWRPPRLPRPRPRPHNDPRP | -0.324 |
| RRIRERPPRLPRPRPRPTHMPRP | -0.182 |
| RRIRARPPRLPRPRPRPSMMPRP | 0.162 |
| RRIRKRPPRLPRPRPRPAWFPRP | 0.0729 |
| RRIRHRPPRLPRPRPRPHLVPRP | -0.18 |
| RRIRFRPPRLPRPRPRPCEHPRP | -0.00783 |
| RRIRGRPPRLPRPRPRPMFDPRP | 0.662 |
| RRIRCRPPRLPRPRPRPASQPRP | -0.0515 |
| RRIRIRPPRLPRPRPRPAKEPRP | -0.374 |
| RRIRRRPPRLPRPRPRPHFGPRP | 0.111 |

| Sequence | shrunken log2 fold change |
| --- | --- |
| RRIRPRPPRLPRPRPRPHGAPRP | 0.641 |
| RRIRERPPRLPRPRPRPCIRPRP | -0.152 |
| RRIRARPPRLPRPRPRPFSLPRP | 0.0486 |
| RRIRHRPPRLPRPRPRPLMHPRP | -0.414 |
| RRIRSRPPRLPRPRPRPHVFPRP | 2.95 |
| RRIRERPPRLPRPRPRPPNKPRP | -0.243 |
| RRIRVRPPRLPRPRPRPFCEPRP | -0.197 |
| RRIRWRPPRLPRPRPRPIKDPRP | 0.211 |
| RRIRDRPPRLPRPRPRPMNCPRP | -0.00373 |
| RRIRQRPPRLPRPRPRPENYPRP | 0.309 |
| RRIRERPPRLPRPRPRPGIVPRP | -0.113 |
| RRIRHRPPRLPRPRPRPTEFPRP | -0.153 |
| RRIRSRPPRLPRPRPRPADGPRP | 0.218 |
| RRIRWRPPRLPRPRPRPGQAPRP | 1.06 |
| RRIRRRPPRLPRPRPRPGCKPRP | 0.12 |
| RRIRIRPPRLPRPRPRPDYEPRP | -0.0916 |
| RRIRKRPPRLPRPRPRPYKQPRP | -0.0754 |
| RRIRPRPPRLPRPRPRPIGYPRP | -0.0758 |
| RRIRNRPPRLPRPRPRPWIFPRP | -0.201 |
| RRIRGRPPRLPRPRPRPPTFPRP | 0.572 |
| RRIRIRPPRLPRPRPRPIKAPRP | -0.38 |
| RRIRFRPPRLPRPRPRPQNRPRP | -0.536 |
| RRIRNRPPRLPRPRPRPWHNPRP | -0.146 |
| RRIRCRPPRLPRPRPRPLPAPRP | 0.574 |
| RRIRARPPRLPRPRPRPELDPRP | 1.78 |
